Data taken from the supplement of paper PMC6379048.

Legend:
Assay in all cases: Kd (EC50 corrected by depletion factor)
DIS3L2 = biological target: T1, DIS3L2 (UniProt Q8IYB7)
T1 sequence: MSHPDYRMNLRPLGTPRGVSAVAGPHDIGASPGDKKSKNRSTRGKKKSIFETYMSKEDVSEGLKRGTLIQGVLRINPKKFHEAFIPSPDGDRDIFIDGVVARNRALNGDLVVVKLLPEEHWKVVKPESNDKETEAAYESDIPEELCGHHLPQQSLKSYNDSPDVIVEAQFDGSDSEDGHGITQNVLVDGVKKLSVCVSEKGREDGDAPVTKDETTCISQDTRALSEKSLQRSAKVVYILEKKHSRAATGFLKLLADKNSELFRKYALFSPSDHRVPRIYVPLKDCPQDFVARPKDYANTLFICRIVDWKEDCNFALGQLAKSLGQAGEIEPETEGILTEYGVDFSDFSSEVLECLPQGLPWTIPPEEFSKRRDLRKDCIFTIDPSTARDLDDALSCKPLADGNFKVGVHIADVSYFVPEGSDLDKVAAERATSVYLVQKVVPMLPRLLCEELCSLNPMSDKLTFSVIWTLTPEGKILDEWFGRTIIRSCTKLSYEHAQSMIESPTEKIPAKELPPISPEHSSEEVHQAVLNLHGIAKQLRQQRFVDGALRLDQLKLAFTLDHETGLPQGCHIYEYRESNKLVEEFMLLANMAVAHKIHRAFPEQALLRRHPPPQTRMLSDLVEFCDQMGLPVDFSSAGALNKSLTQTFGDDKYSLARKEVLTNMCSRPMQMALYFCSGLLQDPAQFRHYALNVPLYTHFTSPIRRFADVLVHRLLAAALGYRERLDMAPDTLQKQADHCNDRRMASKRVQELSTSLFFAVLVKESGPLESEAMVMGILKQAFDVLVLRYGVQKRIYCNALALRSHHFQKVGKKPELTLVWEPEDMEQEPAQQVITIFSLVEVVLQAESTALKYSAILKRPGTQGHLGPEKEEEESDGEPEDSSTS
Protocol: (§1)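 Competition-binding assay: HEK293-FT cell lysate (2.5 mg protein) pre-incubated 1 h at 4°C with free motif-containing RNA oligos (0 to 30 µM, 12 doses), then pulled down with the same 5'-amino-C6 RNA oligos immobilised on NHS-Sepharose beads (30 min, 4°C). Bound proteins were quantified by label-free LC-MS/MS and normalised to the water control. EC50 came from a four-parameter log-logistic fit; Kd = EC50 x depletion factor. Random/reversed control probes are dropped.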

DHX9 = DHX9 (UniProt Q08211)
Protocol: as §1

SKIV2L2 = biological target: T2, SKIV2L2 (UniProt P42285)
T2 sequence: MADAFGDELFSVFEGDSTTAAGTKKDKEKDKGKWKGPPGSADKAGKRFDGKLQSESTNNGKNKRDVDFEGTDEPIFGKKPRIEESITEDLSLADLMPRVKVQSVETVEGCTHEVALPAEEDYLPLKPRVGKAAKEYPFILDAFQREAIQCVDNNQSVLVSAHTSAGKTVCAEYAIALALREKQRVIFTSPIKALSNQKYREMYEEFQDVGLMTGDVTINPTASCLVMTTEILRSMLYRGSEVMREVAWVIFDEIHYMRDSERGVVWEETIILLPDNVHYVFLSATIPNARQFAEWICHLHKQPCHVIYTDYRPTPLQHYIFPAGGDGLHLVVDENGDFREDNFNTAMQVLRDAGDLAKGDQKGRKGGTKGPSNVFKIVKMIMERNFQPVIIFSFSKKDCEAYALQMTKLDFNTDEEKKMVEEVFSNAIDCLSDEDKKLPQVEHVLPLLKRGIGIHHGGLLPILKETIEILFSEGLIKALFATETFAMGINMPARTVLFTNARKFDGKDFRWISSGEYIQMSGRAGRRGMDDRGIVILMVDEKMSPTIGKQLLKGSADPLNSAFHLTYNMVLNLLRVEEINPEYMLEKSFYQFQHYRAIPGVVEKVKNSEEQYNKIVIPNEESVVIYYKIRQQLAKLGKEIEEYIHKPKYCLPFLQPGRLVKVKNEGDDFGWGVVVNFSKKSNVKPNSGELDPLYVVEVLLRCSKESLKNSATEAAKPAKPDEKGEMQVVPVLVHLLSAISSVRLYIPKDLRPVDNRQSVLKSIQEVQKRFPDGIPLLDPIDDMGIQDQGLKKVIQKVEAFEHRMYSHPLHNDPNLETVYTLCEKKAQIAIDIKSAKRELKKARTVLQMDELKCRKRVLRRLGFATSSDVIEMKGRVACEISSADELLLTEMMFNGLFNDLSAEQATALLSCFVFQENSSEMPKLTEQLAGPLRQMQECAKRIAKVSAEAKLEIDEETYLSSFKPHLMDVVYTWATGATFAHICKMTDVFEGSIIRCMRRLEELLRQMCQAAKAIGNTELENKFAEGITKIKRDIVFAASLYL
Protocol: as §1

CELF1 = biological target: T3, CELF1 (UniProt Q92879)
T3 sequence: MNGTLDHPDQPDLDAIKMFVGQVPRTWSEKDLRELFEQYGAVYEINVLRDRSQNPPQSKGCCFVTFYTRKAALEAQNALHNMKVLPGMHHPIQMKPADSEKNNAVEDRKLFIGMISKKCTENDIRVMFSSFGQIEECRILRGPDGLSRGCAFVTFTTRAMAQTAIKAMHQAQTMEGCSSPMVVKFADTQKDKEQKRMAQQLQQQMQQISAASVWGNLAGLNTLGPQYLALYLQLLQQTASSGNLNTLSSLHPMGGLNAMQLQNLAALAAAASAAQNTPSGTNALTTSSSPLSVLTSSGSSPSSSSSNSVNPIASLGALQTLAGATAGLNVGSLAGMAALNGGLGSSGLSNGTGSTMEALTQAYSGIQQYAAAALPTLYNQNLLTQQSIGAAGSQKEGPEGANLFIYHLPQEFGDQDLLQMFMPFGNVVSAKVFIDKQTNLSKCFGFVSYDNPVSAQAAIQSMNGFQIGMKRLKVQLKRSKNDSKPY
Protocol: as §1

Sequence of DHX9 (Q08211 whole entry): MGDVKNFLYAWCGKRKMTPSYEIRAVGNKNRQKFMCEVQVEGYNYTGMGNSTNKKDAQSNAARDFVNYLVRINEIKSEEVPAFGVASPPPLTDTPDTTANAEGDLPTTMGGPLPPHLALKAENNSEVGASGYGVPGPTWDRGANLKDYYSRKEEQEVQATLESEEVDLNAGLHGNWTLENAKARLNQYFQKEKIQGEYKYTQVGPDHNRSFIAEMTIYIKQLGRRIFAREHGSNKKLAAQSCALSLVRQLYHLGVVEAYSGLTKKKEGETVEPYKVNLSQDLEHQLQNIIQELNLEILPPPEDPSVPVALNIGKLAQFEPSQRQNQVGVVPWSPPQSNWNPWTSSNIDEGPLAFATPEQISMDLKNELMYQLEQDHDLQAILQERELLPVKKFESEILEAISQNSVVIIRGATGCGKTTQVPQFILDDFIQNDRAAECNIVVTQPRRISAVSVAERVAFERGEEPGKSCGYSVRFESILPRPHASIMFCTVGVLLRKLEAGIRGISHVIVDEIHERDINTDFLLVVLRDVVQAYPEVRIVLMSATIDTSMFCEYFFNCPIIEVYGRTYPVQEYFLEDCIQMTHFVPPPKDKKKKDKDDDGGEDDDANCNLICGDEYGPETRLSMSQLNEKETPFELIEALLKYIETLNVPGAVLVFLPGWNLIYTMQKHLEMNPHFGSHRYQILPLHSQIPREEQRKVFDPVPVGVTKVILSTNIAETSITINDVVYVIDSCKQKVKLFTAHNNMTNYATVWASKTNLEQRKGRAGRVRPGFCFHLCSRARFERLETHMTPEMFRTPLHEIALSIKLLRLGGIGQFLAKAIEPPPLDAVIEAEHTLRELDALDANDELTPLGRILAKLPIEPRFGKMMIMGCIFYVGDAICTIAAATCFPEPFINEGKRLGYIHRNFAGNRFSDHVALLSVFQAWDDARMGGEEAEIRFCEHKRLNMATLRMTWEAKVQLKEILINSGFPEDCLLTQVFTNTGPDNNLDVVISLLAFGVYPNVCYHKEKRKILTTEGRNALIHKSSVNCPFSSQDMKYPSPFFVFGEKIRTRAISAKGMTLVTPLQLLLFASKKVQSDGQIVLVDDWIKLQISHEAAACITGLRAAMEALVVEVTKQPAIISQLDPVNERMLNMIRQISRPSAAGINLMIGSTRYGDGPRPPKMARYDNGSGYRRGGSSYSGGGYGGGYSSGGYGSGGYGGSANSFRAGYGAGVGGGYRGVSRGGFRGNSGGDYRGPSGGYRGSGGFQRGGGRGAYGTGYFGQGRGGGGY

| Sequence | Kd (DIS3L2) [nM] | Kd (DHX9) [nM] | Kd (SKIV2L2) [nM] | Kd (CELF1) [nM] |
| --- | --- | --- | --- | --- |
| CUGUCCU | 774 | 155 | 2450 | 3660 |
| AAUAAA | 383 | 1840 | 393 | 162 |
| UAUUUAU | 290 | 1230 | 202 | 350 |
